Experimental data: publication PMC6188894

Target: VN-TFIIEβ (TFIIEβ fused to the N-terminal fragment of Venus, pCS2VNm9)
Assay: BiFC
Conditions: cell culture; pCAG-Cherry co-transfected as a control

Substance	response
VC-Antp (wild-type Antennapedia fused to the C-terminal fragment of Venus, pCS2VC155) (from UniProt P02833) H36R	32%
VC-Antp (wild-type Antennapedia fused to the C-terminal fragment of Venus, pCS2VC155) (from UniProt P02833) I32A	29%
VC-Antp (wild-type Antennapedia fused to the C-terminal fragment of Venus, pCS2VC155) (from UniProt P02833) I32L	31%

Target: VN-TFIIEβ (TFIIEβ fused to the N-terminal fragment of Venus, pCS2VNm9) (Drosophila)
Sequence (O96881 entry or part of it): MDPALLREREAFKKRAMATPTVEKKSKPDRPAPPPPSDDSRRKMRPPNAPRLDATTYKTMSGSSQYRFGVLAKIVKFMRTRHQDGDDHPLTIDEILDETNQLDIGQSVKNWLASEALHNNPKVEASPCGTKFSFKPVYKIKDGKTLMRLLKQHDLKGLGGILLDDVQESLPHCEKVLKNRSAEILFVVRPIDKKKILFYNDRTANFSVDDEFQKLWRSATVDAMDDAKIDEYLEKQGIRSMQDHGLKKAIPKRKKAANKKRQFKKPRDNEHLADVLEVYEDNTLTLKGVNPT
Assay: split reporter (BiFC, NanoBiT); BiFC with split Venus (VC and VN fusions) in co-transfected HEK293 cells, read 48 h after transfection by confocal microscopy; percent = Venus-fluorescent cells in one hundred mCherry-positive cells, three independent experiments
Conditions: not given

Substance	percent of transfected (mCherry-positive) cells with BiFC signal
VC-Antp (wild-type Antennapedia fused to the C-terminal fragment of Venus, pCS2VC155) (from UniProt P02833 1-378) (natural protein)	78%
VC-AntpHD (Antp homeodomain construct fused to the C-terminal fragment of Venus, pCS2VC155) (domain or fragment)	75%
VC-Antp^AAAA (Antp with the YPWM motif replaced with alanines) (from UniProt P02833 1-378) (natural protein)	76%
VC-AntpΔH1 (Antp with helix 1 of the HD deleted) (from UniProt P02833 1-378) (natural protein)	74%
VC-AntpΔH1-2 (Antp with helices 1 and 2 of the HD deleted) (from UniProt P02833 1-378) (natural protein)	15%

Continued, values first:

percent of transfected (mCherry-positive) cells with BiFC signal	Substance
13%	VC-Antp^I32L-H36R (natural protein)
26%	VC-AntpΔHD (Antp with the homeodomain deleted) (from UniProt P02833 1-378) (natural protein)

Target: EXD (BiFC partner in HEK293 cells) (Drosophila) (UniProt P40427)
Sequence of UniProt P40427 (P40427 whole entry): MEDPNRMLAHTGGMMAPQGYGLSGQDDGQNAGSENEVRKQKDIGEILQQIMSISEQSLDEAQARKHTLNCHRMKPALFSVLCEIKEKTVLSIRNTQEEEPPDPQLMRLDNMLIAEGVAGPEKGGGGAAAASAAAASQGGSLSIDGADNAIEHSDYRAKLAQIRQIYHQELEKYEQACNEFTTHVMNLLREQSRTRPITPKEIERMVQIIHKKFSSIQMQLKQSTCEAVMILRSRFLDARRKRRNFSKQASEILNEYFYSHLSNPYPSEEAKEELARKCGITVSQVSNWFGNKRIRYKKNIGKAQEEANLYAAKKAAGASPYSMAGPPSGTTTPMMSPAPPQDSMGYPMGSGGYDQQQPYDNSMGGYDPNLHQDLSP
Assay: as above
Conditions: not given

Substance	percent of transfected (mCherry-positive) cells with BiFC signal
VC-Antp^I32A-H36A (in HEK293 cells) (natural protein)	79%
